Like-named read-outs stand apart in the source and are kept apart here. Marks after values point to notes of the source that are not given here.

Series [1] in a line: Fluorescent biotin conjugate dissociation assay. As to conditions: for Fluorescent biotin kdiss: ArcDia BF560-biotin; for Fluorescent biotin kdiss / Release 1 h of fluorescent biotin conjugate: 50° C.; for Release 1 h of fluorescent biotin conjugate: one hour, presence of excess free biotin; for Fluorescent biotin conjugate dissociation (in words): fluorescent biotin conjugate as ligand. Type of series: binding. The protocol:
(§1) FIG. 2 Biotin dissociation analysis. (A) The [3H]biotin dissociation rate constant was measured at different temperatures. The values for streptavidin are from Klumb et al. (Klumb et al., 1998). The scale of the Y axis is logarithmic. (B) Release of fluorescent biotin conjugate from avidins was studied as a function of time in the presence of excess D-biotin at 50° C.
(§2) Ligand binding properties were studied both by [3H]biotin assay and fluorescent biotin conjugate assay. The dissociation rate constant of [3H]biotin (Amersham) from the bradavidins and avidin was measured at various temperatures as described in detail previously (Klumb et al., 1998). According to the results, (Table I, FIG. 2) the faster dissociation rate measured from bradavidin indicates weaker affinity toward the radiobiotin than those of avidin and streptavidin. The dissociation rate of a fluorescent biotin conjugate (ArcDia BF560™-biotin) was measured as previously described (Hytönen et al., 2004a) at 50° C.
(§3) The apparent molecular mass is indicated and followed by the theoretical mass in brackets. Transition temperature (Tr) indicates the temperature in which half of the protein is tetrameric and half monomeric in the absence (first value) and presence (second value) of biotin. In addition to the measured dissociation rate constant (kdiss), the release percentage of the fluorescent biotin conjugate in one hour in the presence of excess free biotin is indicated. Calculated isoelectrical point (pI) and the number of cysteine residues per monomer are also indicated.

Series [2] in a line: SDS-PAGE based thermal stability (heat treatment). Type of series: physicochemical.
Source text: The thermal stability characteristics of the proteins were studied by a SDS-PAGE based method as previously described in detail by (Bayer et al., 1996).
as §3

Series [3] is described as follows: [3H]biotin dissociation rate assay. The series is classed as binding. As to conditions: radio-biotin, different temperatures. The procedure:
as §1, §2

For series [4] the following is noted: values from Bayer et al., 1996, cited from earlier work.

B1: Bradavidin-core: C-terminally truncated core form (118 amino acid residues, SEQ ID NO:2) of biotin-binding protein from Bradyrhizobium japonicum, produced in E. coli (protein, listed as Bradyrhizobium japonicum)
chain: QSVNWTWTNQYGSTLAITSFNSNTGAITGTYTNNAANSCDEGKPQGVTGWLAYGNTGTAISFSVNFLGCGSTTVWTGQLNNATGFQGLWYLSLAEAVAWNGISAGADTFTFSSGDKAL
On to B1, for which, in series [1], the Fluorescent biotin kdiss came out at 1.2e-05 s⁻¹ and the “Release 1 h of fluorescent biotin conjugate” value (shortened to “Release 1 h”) is recorded as 4.4%. The “Heat treatment SDS-PAGE Tr (transition temperature, half tetrameric and half monomeric)” value in series [2] (absence of biotin) was 70^ ° C. For the same molecule, in series [2] (presence of biotin), the “Heat treatment SDS-PAGE Tr (transition temperature, half tetrameric and half monomeric)” value turned out to be 85 °C.

B2: Bradavidin: full length wild-type (138 amino acid residues, SEQ ID NO:1) avidin-like biotin-binding protein from Bradyrhizobium japonicum (protein, listed as Bradyrhizobium japonicum)
chain: QSVNWTWTNQYGSTLAITSFNSNTGAITGTYTNNAANSCDEGKPQGVTGWLAYGNTGTAISFSVNFLGCGSTTVWTGQLNNATGFQGLWYLSLAEAVAWNGISAGADTFTFSSGDKALLTKSGVDLKAGSEKLSNTKK
Take B2: in series [1], the Fluorescent biotin kdiss worked out at 1.5e-05 s⁻¹; the “Fluorescent biotin conjugate dissociation (in words)” value was “very slow and small release”; the “Release 1 h” value stood at 4.7%. The “[3H]biotin dissociation rate (in words)” value in series [3] was “fastest dissociation rate”. The “Heat treatment SDS-PAGE Tr (transition temperature, half tetrameric and half monomeric)” value in series [2] (absence of biotin) is 65^ ° C. Further, in series [2] (presence of biotin), the “Heat treatment SDS-PAGE Tr (transition temperature, half tetrameric and half monomeric)” value was 85 °C.

B3: Avidin: chicken avidin (SEQ ID NO:6), glycosylated biotin-binding protein (protein)
chain: NSARSTPGCPPAAEMVHATSPLLLLLLLSLALVAPGLSARKCSLTGKWTNDLGSNMTIGAVNSRGEFTGTYITAVTATSNEIKESPLHGTQNTINKRTQPTFGFTVNWKFSESTTVFTGQCFIDRNGKEVLKTMWLLRS
With B3, the “Heat treatment SDS-PAGE Tr (transition temperature)” value in series [4] (absence of biotin) is on record as 58^a ° C. Besides, in series [4] (presence of biotin), the “Heat treatment SDS-PAGE Tr (transition temperature)” value was 100^a ° C. Besides, in series [1], the Fluorescent biotin kdiss stood at 0.00027 s⁻¹, the “Fluorescent biotin conjugate dissociation (in words)” value is on record as “clearly the fastest in dissociation” and the “Release 1 h” value turned out to be 71.5%. Also, in series [3], the “[3H]biotin dissociation rate (in words)” value is “clearly the slowest dissociation”.

The record behind these values is patent US20100022401A1, “Avidin-like proteins from symbiotic bacteria” (LICENTIA OY, priority 2004, published 2010).
